The target in this assay is PDGF receptor PDGFRβ on the surface of 293-SL/PR cells (transformed 293T cell line). In words: cell-based or functional assay.

Substance “recombinant human PDGF B (rhPDGF B) (from UniProt P01127 82-190) (ligand)” registered a bioactivity by luciferase assay in 293-SL/PR reporter cells; PDGF at 30 ng/mL lyophilized with 3 mg/mL collagen (experimental group) of 310000 RLU/sec and a bioactivity by luciferase assay in 293-SL/PR reporter cells; PDGF solution (control group) at 120 ng/mL of 340000 RLU/sec.

(Values after patent US20220061310A1.)
